For the experiment, the target named is tau (residues 149-395) labeled with Alexa Fluor 488 at C291 (human) (UniProt P10636). Put plainly: fluorescence correlation spectroscopy.
Sequence of UniProt P10636 (P10636 466-712 C639S): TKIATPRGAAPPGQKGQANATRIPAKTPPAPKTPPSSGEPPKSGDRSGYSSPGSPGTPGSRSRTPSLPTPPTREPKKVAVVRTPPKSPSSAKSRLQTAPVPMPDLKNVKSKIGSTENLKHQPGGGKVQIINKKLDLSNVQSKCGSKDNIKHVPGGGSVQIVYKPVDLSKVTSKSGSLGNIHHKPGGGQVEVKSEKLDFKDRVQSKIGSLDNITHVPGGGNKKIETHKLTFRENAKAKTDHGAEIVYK

“tailless tubulin (subtilisin-cleaved bovine brain tubulin) (from UniProt Q6B856 1-445) (complex)”: the fold weaker affinity than intact tubulin was 5 fold and the maximum increase in diffusion time of tau stood at 0.15 ms.

The values above are taken from publication PMC7176406.
